In patent publication US20050118638A1 (RSR, published 2005):

B1: 2B4 IgG (antibody, V domains shown, not shown: a dimerising Fc or GST)
VH: DVQLQQSGTVLARPGASVRMSCKASGYSFTRYWIHWLKQRPGQGLEWIGAIFPGNRDTSYNQRFKGKAEVTAVTSASTAYLDLSSLTNEDSAVYYCTRWPYYGSIYVNFDYWGQGTTLTVSS
VL: DIVMTQSPLSLPVSLGDQASISCRTSQNLVHRNGNTYLHWYLQKPGQSPKLLIYKISNRFSGVPDRFSGSGSGTDFTLKISRVEAEDLGVYFCSQGTHVPPTFGGGTKLEIKR
notes: mouse monoclonal IgG; also called 2B4 MAb
B2: 3B3 IgG (antibody, V domains shown)
VH: DVQLQQPGAELVKPGASVKLSCTTSGVNIKDTYMHWMKQRPEQGLEWIGRIDPANGNTKYDPKFRGKATITADTSSNTVYVQLRSLTSEDTAVYYCAYDGYWGQGTLVTVSA
VL: NIVMTQTPASLAVSLGQRATISCRASESVDSYGNNFMHWYQQKPGQSPRLLIYRASNLESGIPARFSGSGSRTDFTLTTNPVEADDVATYYCQQSHKDPLTFGAGTKLELK
B3: 3B3 Fab (Fab, V domains shown)
VH: DVQLQQPGAELVKPGASVKLSCTTSGVNIKDTYMHWMKQRPEQGLEWIGRIDPANGNTKYDPKFRGKATITADTSSNTVYVQLRSLTSEDTAVYYCAYDGYWGQGTLVTVSA
VL: NIVMTQTPASLAVSLGQRATISCRASESVDSYGNNFMHWYQQKPGQSPRLLIYRASNLESGIPARFSGSGSRTDFTLTTNPVEADDVATYYCQQSHKDPLTFGAGTKLELKR
B4: 4D7 IgG (antibody, V domains shown, not shown: a dimerising Fc or GST)
VH: DVQLKHSGPELVKPGASMKISCKASGYSFTGYTMNWVKQSHGKNLEWIGLINPYTGGTNYNQKFKGKAKLTVDKSSSTAFMELLSLTSEDSAVYYCARDGNLDYWGQGTTLTVSS
VL: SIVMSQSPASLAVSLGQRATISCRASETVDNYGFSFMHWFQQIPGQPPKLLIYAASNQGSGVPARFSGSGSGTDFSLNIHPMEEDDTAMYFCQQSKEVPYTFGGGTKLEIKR
notes: mouse monoclonal IgG; also called Mab 4D7
B5: 3C7 IgG (antibody, V domains shown, not shown: a dimerising Fc or GST)
VH: DVQLKHSGPELVKPGASMKISCKASGYSFTGYTMNWVKQSHGKNLDWIGLINPYNGGTSYDQKFKGKATLTVDKSSSTAYMELLSLTSEDSAVYYCARDGLMDYWGQGTSVTVSS
VL: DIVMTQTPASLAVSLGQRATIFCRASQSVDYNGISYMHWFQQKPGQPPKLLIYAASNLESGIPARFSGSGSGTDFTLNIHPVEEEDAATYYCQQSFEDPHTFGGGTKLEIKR
notes: mouse monoclonal IgG
B6: 16E5 IgG (antibody, V domains shown, not shown: a dimerising Fc or GST)
VH: DVQLVQSGPELVKPGASVKMSCKASGYSFTGYNMHWVKQSHGKSLEWIGYIDPYNGATSYNQKFEDKATLTVDKSSSTAYMQLNSLTSEDSAVYYCARRWDWDPYAMDYWGQGTSVTVSS
VL: DILLTQSPAILSVSPGERVSFSCRASQSIGTSIHWYQQRTNGSPRLLIKYASESISGIFSRFSGSGSGTDFTLTINSVESEDIADYYCQQSNRWPLTFGAGTKLELKR
notes: mouse monoclonal IgG; also called MAb 16E5
B7: 14D3 Fab (Fab, V domains shown)
VH: DVQMQQPGPELVKPGASLKMSCKASGYSFTGYNMHWVKQSHGKSLEWIGYIDPYSGATSYNQKFEGKATLTVDKSSSTAYMQLNSLTSEDSAVYYCARRWDWDPYAMDYWGQGTSVTVSS
VL: NILMTQSPAILSVSPGERVSFACRASQSIGTSIHWYQQRTNGSPRLLIKYASESISGIPSRFSGSGSGTDFTLSINSVESEDIADYYCQQTNRWPLTFGAGTKLELKR
notes: Fab of the mouse MAb
B8: 17D2 IgG (antibody, V domains shown, not shown: a dimerising Fc or GST)
VH: DVQIQQSGPELVKPGASVKMSCKASGYSFTAYNMHWVKQTHGKSLEWIGYIDPYSGATSYHQKFKGKATLTVDKSSSTAYMRLNSLTSEDSAVYYCARRWDWDPYAMDYWGQGTSVTVSS
VL: SVEMSQSPAILSVSPGERISFSCRASQSIGTSIHWYQQRTNGSPRLLIKYASASISGIPSRFSGSGSGTDFTLSINSVESEDIADYYCQQSNSWPLTFGAGTKLELKR
notes: mouse monoclonal IgG
B9: 17D2 Fab (Fab, V domains shown)
VH: DVQIQQSGPELVKPGASVKMSCKASGYSFTAYNMHWVKQTHGKSLEWIGYIDPYSGATSYHQKFKGKATLTVDKSSSTAYMRLNSLTSEDSAVYYCARRWDWDPYAMDYWGQGTSVTVSS
VL: SVEMSQSPAILSVSPGERISFSCRASQSIGTSIHWYQQRTNGSPRLLIKYASASISGIPSRFSGSGSGTDFTLSINSVESEDIADYYCQQSNSWPLTFGAGTKLELKR
notes: Fab of the mouse MAb
B10: 14D3 IgG (antibody, V domains shown, not shown: a dimerising Fc or GST)
VH: DVQMQQPGPELVKPGASLKMSCKASGYSFTGYNMHWVKQSHGKSLEWIGYIDPYSGATSYNQKFEGKATLTVDKSSSTAYMQLNSLTSEDSAVYYCARRWDWDPYAMDYWGQGTSVTVSS
VL: NILMTQSPAILSVSPGERVSFACRASQSIGTSIHWYQQRTNGSPRLLIKYASESISGIPSRFSGSGSGTDFTLSINSVESEDIADYYCQQTNRWPLTFGAGTKLELKR
notes: mouse monoclonal IgG; also called MAb 14D3
B11: 16E5 Fab (Fab, V domains shown)
VH: DVQLVQSGPELVKPGASVKMSCKASGYSFTGYNMHWVKQSHGKSLEWIGYIDPYNGATSYNQKFEDKATLTVDKSSSTAYMQLNSLTSEDSAVYYCARRWDWDPYAMDYWGQGTSVTVSS
VL: DILLTQSPAILSVSPGERVSFSCRASQSIGTSIHWYQQRTNGSPRLLIKYASESISGIFSRFSGSGSGTDFTLTINSVESEDIADYYCQQSNRWPLTFGAGTKLELKR
notes: papain Fab of the mouse MAb

Columns and labels:
[1] = biological target: TSH receptor of isolated porcine thyroid cells (porcine, UniProt Q8SPP9 22-764); assay: cell-based or functional assay
[2] = biological target: T1, TSH receptor (detergent solubilised TSH receptor preparation) (UniProt P16473 21-764, limits assumed); assay: 125I-TSH, TSHR coated tubes; 2 µg/ml
T1 construct: In some assays captured or labelled through MAb 4E31 F(ab)2; also called thyrotrophin receptor
Protocol: (§1) In particular the MAb 4E31 reactive with the TSHR C terminus (10 μg/mL F(ab)₂ preparation in 0.1 M Na₂CO₃ pH 9.2) was added to plastic tubes (Nune Maxisorp, 200 μL per tube) and coating allowed to proceed overnight 4° C. After washing and post-coating (10 mg/mL bovine serum albumin) the tubes were washed again with assay buffer (10 mM Tris-HCl pH 7.8, 50 mM NaCl, 1 mg/mL bovine serum albumin, 0.1% Triton X-100). 200 μL of a detergent solubilised TSHR preparation was then added and incubated overnight at 4° C. followed by aspiration and washing steps. Thereafter, 20 μL of “start” buffer (10 mM Tris-HCl pH 7.8, 50 mM NaCl, bovine serum albumin 1 mg/mL, 6 mM NaN₃, 1% Triton X-100) was added to the TSHR coated tubes followed by 100 μL of purified MAb IgG or patient sera and incubated at room temperature for 2 hours with gentle shaking. […] The tubes were then washed twice with 1 mL of assay buffer, aspirated and counted in a gamma counter.

[3] = biological target: human TSHR expressed on Chinese hamster ovary (CHO) cells (human, UniProt P16473 21-764); assay: cell-based or functional assay
[4] = biological target: T1, TSH receptor (detergent solubilised TSH …); assay: solubilised TSHR, PEG method; IgG 100 µg/ml; competitor 125I-16E5 Fab
[5] = biological target: T1, TSH receptor (detergent solubilised TSH …); assay: 125I-TSH, TSHR coated tubes; 20 µg/ml
Protocol: as §1

[6] = biological target: T1, TSH receptor (detergent solubilised TSH …); assay: 125I-TSH, TSHR coated tubes; tested at 10 µg/ml
Protocol: as §1

TSH receptor of isolated porcine thyroid cells, sequence (Q8SPP9 22-764): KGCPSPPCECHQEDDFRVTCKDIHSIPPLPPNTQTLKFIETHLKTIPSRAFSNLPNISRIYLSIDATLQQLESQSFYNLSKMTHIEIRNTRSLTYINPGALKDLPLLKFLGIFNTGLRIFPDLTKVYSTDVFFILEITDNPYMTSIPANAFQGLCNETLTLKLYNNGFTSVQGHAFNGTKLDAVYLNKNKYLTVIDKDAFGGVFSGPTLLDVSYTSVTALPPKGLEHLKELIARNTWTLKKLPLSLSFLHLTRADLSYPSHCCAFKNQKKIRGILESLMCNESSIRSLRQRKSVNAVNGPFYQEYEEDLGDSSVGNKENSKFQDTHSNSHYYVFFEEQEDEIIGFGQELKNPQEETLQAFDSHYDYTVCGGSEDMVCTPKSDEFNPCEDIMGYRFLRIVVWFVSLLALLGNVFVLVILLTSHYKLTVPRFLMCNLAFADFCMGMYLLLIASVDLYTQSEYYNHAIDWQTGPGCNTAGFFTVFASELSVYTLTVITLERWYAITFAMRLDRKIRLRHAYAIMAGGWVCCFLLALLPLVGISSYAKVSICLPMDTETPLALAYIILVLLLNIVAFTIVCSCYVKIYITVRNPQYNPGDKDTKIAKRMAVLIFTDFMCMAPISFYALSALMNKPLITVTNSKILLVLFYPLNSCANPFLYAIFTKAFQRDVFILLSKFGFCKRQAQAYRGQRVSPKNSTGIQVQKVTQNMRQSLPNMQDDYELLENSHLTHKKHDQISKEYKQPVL
T1 sequence (P16473 21-764 limits assumed): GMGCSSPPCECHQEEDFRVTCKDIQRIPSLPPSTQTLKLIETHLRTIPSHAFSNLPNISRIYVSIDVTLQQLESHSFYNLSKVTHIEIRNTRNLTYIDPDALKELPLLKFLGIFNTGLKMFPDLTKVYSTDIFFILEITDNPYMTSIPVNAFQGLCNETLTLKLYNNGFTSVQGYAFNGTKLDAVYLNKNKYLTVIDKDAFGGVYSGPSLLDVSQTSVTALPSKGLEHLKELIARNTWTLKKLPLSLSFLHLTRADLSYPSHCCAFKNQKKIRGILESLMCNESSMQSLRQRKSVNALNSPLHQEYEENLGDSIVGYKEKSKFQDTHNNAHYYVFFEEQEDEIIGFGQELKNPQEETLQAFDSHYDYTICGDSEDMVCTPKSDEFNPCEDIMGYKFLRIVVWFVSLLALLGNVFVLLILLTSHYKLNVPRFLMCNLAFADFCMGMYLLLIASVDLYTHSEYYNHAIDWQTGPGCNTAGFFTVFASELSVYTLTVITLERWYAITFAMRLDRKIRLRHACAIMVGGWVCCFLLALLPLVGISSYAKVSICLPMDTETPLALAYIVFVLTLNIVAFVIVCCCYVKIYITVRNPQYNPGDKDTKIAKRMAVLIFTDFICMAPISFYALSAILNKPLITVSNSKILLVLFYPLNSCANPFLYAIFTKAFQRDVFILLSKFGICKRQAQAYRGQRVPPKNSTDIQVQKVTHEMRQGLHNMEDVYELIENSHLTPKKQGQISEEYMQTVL
human TSHR expressed on Chinese hamster ovary (CHO) cells, sequence (P16473 21-764): as the sequence (P16473 21-764 limits assumed) above

Binder | Stimulation (%) of cyclic AMP, isolated porcine thyroid cells; 2 µg/ml [1] | Stimulation (%) of cyclic AMP, isolated porcine thyroid cells; 20 µg/ml [1] | % inhibition of TSH binding [2] | Stimulation (%) of cyclic AMP, CHO cells expressing human TSHR; 20 µg/ml, diluted 1:10 [3] | Stimulation (%) of cyclic AMP, isolated porcine thyroid cells; 200 µg/ml [1] | % inhibition of 125I-16E5 Fab binding [4] | % inhibition of TSH binding [5] | % inhibition of TSH binding [6]
B1 | 116% | 100% | 69.9% | 111% | – | – | – | –
B2 | – | 37% | – | – | 34% | – | – | –
B3 | – | – | – | – | 42% | – | – | –
B4 | – | 31% | – | – | 259% | 24.2% | – | –
B5 | – | – | – | – | – | 17% | – | –
B6 | 269% | 332% | 73.6% | 850% | 466% | 70.4% | 83.3% | –
B7 | – | – | – | – | 648% | – | – | 64%
B8 | 134% | 207% | 73.7% | – | 377% | 69.2% | 81.3% | –
B9 | – | – | – | – | 274% | – | – | 45%
B10 | 323% | 351% | 61% | 908% | 557% | 67.6% | 76.4% | –
B11 | – | – | – | – | 425% | – | – | 53%
